Positions count from the first letter of the chain named.
Experiments:
[1] = molecular target: T1, recombinant human Fibroblast Activation Protein (FAP) with N-terminus 6x histidine tag (human, UniProt Q12884 26-760); assay: direct ELISA: rFAP directly coated (FAP)
T1 construct: Bought protein; also called rFAP; rhFAP
T1 sequence: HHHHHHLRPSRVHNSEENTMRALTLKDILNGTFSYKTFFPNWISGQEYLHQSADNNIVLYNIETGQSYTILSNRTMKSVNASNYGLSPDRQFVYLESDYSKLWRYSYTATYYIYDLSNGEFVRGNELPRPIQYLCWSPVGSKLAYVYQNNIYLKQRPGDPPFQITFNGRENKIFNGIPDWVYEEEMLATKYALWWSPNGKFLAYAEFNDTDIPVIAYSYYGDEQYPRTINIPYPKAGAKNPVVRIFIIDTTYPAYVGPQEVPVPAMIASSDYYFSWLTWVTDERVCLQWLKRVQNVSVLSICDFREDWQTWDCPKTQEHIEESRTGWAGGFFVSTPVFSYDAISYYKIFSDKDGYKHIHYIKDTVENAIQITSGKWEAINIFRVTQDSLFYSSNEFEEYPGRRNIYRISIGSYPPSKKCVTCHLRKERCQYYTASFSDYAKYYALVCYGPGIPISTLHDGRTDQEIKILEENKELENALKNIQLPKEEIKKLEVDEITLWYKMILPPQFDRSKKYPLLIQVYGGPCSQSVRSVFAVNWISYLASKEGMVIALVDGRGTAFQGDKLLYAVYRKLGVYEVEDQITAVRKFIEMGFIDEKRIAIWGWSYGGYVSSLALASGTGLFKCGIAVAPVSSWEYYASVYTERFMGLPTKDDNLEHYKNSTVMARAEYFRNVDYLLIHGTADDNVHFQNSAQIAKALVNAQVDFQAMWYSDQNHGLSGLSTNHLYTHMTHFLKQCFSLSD

[2] = molecular target: T2, cFAP (mixture of three FAP peptides) (human); assay: direct ELISA: coated mixture of three FAP peptides (cFAP)
T2 construct: A mixture of three separate peptides coated together, not a complex; The three chains are the three components; also called directly coated FAP peptides mixture
T2 peptide 1: HYIKDTVENAIQITS
T2 peptide 2: GWSYGGYVSSLALAS
T2 peptide 3: QVDFQAMWYSDQNHGL

[3] = molecular target: T3, bovine serum albumin (BSA) (bovine, UniProt P02769 25-607); assay: direct ELISA: BSA coated directly on the plate [continued) H]
T3 construct: Negative control antigen in the ELISAs
T3 sequence (P02769 25-607 limits assumed): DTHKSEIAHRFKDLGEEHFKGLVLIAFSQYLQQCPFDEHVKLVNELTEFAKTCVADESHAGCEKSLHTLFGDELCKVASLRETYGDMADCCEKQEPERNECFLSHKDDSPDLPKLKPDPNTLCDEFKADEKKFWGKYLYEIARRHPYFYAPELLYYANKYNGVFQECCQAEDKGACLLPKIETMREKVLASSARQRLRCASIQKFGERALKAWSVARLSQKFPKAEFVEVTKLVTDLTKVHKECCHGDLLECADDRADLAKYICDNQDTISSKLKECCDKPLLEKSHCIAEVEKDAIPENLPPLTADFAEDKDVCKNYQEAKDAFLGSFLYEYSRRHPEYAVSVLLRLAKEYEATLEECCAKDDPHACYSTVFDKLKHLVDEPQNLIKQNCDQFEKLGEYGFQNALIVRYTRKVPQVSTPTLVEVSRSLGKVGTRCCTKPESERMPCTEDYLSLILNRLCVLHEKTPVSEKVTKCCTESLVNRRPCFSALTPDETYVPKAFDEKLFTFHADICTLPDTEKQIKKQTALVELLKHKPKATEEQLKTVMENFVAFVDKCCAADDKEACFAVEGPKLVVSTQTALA

[4] = molecular target: T1, recombinant human Fibroblast Activation …; assay: capture ELISA: His-tagged rFAP captured by coated anti-His antibody (sFAP)
Method: (§1) For the capture ELISA, the microplates were coated with mouse anti-His monoclonal antibody (Clontech) diluted to a concentration of 3 μg/ml in PBS, the plates were then blocked, FAP or BSA were diluted to a concentration of 2 μg/ml in PBS and added to the plates to be captured. The binding efficiency of the antibodies was then tested.
The EC₅₀ values were estimated by a non-linear regression using GraphPad Prism (San Diego, USA) software.

[5] = molecular target: T1, recombinant human Fibroblast Activation …; assay: direct ELISA: rFAP coated directly on the plate, antibody titrated, OD 450 nm; the curve reaches no upper plateau [continued) H]
[6] = molecular target: T1, recombinant human Fibroblast Activation …; assay: capture ELISA: His-tagged rFAP captured by coated anti-His antibody (anti-His+rFAP), antibody titrated, OD 450 nm; the curve reaches no upper plateau [continued) G]
Method: as §1

[7] = molecular target: T1, recombinant human Fibroblast Activation …; assay: direct ELISA: rFAP coated directly on the plate, antibody titrated, OD 450 nm [continued) J]
[8] = molecular target: T1, recombinant human Fibroblast Activation …; assay: capture ELISA: His-tagged rFAP captured by coated anti-His antibody (anti-His+rFAP), antibody titrated, OD 450 nm [continued) I]
Method: as §1

[9] = molecular target: T1, recombinant human Fibroblast Activation …; assay: direct ELISA: rFAP directly coated
[10] = molecular target: T3, bovine serum albumin (BSA); assay: direct ELISA: BSA coated directly on the plate [continued) D]
[11] = molecular target: T4, FAP peptide 125 (497-ALKNIQLPKEEIKKL-511) (human); assay: pepscan, spotted 15-mer peptides
T4 construct: Linear 15-mer spotted on a nitrocellulose membrane
T4 peptide: ALKNIQLPKEEIKKL
Method: (§2) Binding capacity of the antibodies was tested on these peptides spotted onto a nitrocellulose membrane (JPT Peptide Technologies, Berlin, Germany) and using HRP-conjugated donkey anti-human IgG secondary antibody (Jackson immunoResearch, Newmarket, UK) followed by detection of HRP activity (FIGS. 4A and C). In brief, epitope mapping was performed using scans of overlapping peptides. The entire sequences of FAP were synthesized as a total of 188 linear 15-mer peptides with an 11 amino acid overlap between individual peptides. Those peptides were spotted onto nitrocellulose membranes (JPT Peptide Technologies, Berlin, Germany). The membrane was activated for 5 min in methanol and washed in TBS for 10 min at RT. Non-specific binding sites were blocked for 2 h at RT with Roti®-Block (Carl Roth GmbH+Co. KG, Karlsruhe, Germany). Human antibodies (1 μg/ml) were incubated in Roti®-Block for 3 h at RT. Binding of primary antibody was determined using HRP-conjugated donkey anti-human IgG secondary antibody. Blots were developed and evaluated using ECL and ImageQuant 350 detection (GE Healthcare, Otelfingen, Switzerland).

[12] = molecular target: T5, FAP peptide 126 (501-IQLPKEEIKKLEVDE-515) (human); assay: pepscan, spotted 15-mer peptides
T5 construct: Linear 15-mer spotted on a nitrocellulose membrane
T5 peptide: IQLPKEEIKKLEVDE
Method: as §2

[13] = molecular target: T3, bovine serum albumin (BSA); assay: direct ELISA: BSA coated directly on the plate [continued) F]
[14] = molecular target: T1, recombinant human Fibroblast Activation …; assay: direct ELISA: rFAP coated directly on the plate, antibody titrated, OD 450 nm [continued) F]
[15] = molecular target: T1, recombinant human Fibroblast Activation …; assay: capture ELISA: His-tagged rFAP captured by coated anti-His antibody (anti-His+rFAP), antibody titrated, OD 450 nm [continued) E]
Method: as §1

B1: NI-206.20A8 (antibody, V domains shown)
VH: EVQLVESGGGLVQPGGSLKLSCAGSGLDLSASAVHWVRQASGKGLEWIGRIRSKPNHYATTYLASVRGRFILSRDDSENTAYLQMNSLRTEDTAVYYCRIGILNSDHWGRGTLVTVSS
VL: QSVLTQPPSASGTPGQTVIISCSGSSSNLGRKTLNWYQQLPGAAPKLLIFKNDQRASGVPDRFSASKSGTSASLTISGLQSDDEADYYCGTWDDSLDNWVFGGGTKVTVL
notes: Recombinant complete human IgG1
With B1 the EC50 [1] was 2.9 nM, the binding result [2] was “no binding” and the binding result [3] was “no binding”. It also gave an EC50 [4] of 1.33 nM, an EC50 [5] of 86.5 nM and an EC50 [6] of 118 nM.

B2: NI-206.6D3 (antibody, V domains shown)
VH: EVQLVESGGGLVKPGESLRLSCAASGFTFSKAWMNWVRQGPGKGLEWVGRVKSKTDGGTTDYAAPVKGRFTISRDDSKDTVFLQMNSLKTEDTAVYYCSIQFIVVGDRGRDDQYMDVWGKGTTVTVSS
VL: SYVLTQPPSVSVSPGQTARITCSGDALPKQYAFWYQQKPGQAPVIMIYKDNQRPSGIPERFSGSSSGTTVTLTISGVQTEDEADYYCQSADSTNTHVVFGGGTKLTVL
notes: Recombinant complete human IgG1; Cy5-labelled in flow cytometry
With B2 the EC50 [1] was 86.5 nM, the binding result [2] was “no binding” and the EC50 [4] was 118 nM. For the same binder, the EC50 [7] was 3.54 nM and the EC50 [8] was 0.272 nM.

B3: NI-206.22F7 (antibody, V domains shown)
VH: EVQLVETGGGVVQPGRSLRLSCAASGFSFSTHGMYWVRQPPGKGLEWVAVISYDGSDKKYADSVKGRFTISRDNSKNTVYLEMSSVRAEDTALYYCFCRRDAFDLWGQGTMVTVSS
VL: SYVLTQPPSVSVSPGQTARITCSGDALPKKYAYWYQQKSGQAPVLVIYEDTKRPSGIPERFSGSSSGTMATLTISGAQVEDEADYYCYSTDSSGNYWVFGGGTEVTVL
notes: as for B1
With B3 the binding result [9] was “no binding” and the EC50 [2] was 0.12 nM.

B4: NI-206.27E8 (antibody, V domains shown)
VH: EVQLVESGGGLVEPGGSLRLSCAASGFTFSDAWMNWVRQAPGKGLEWVGRIKTKSDGGTTDYAAPVRGRFSISRDDSKNTLFLEMNSLKTEDTAIYYCFITVIVVSSESPLDHWGQGTLVTVSS
VL: SYELTQPPSVSVSPGQTARITCSGDELPKQYAYWYQQKPGQAPVLVIYKDRQRPSGIPERFSGSSSGTTVTLTISGVQAEDEADYYCQSAYSINTYVIFGGGTKLTVL
notes: as for B2
For B4, the EC50 [1] was 0.33 nM, the binding result [2] was “no binding” and the EC50 [4] was 3.36 nM.

B5: NI-206.12G4 (antibody, V domains shown)
VH: EVQLVESGGGLVKPGGSLRLSCAASGFTFSDYYMSWIRQAPGKGLEWISYISSGSSYTNYADSVKGRFTISRDNAKKSVYLEVNGLTVEDTAVYYCARVRYGDREMATIGGFDFWGQGTLVTVSS
VL: B4 VL with E26A, K38S, R51S, Q52E, Y91D, I93G, N94G, Y96S, V97R
notes: as for B2
For B5, the EC50 [1] was 1.4 nM and the binding result [2] was “no binding”.

B6: NI-206.59B4 (antibody, V domains shown)
VH: QVQLVQSGAEVKKPGASVKVSCKTSGYTFTDYYIHWVRQAPGQGLEWMGWINPNRGGTNYAQKFQGRVTMTRDTSIATAYMELSRLRSDDTAVYYCATASLKIAAVGTFDCWGQGTLVTVSS
VL: SYELTQPPSVSVSPGQTARITCSGDALSKQYAFWFQQKPGQAPILVIYQDTKRPSGIPGRFSGSSSGTTVTLTISGAQADDEADYYCQSADSSGTYVFGTGTKVTVL
notes: as for B2
In the case of B6, the EC50 [1] is reported as 0.096 nM, the binding result [2] is reported as “no binding” and the binding result [10] is reported as “no binding”. It also gave an EC50 [4] of 0.044 nM.

B7: NI-206.18H2 (antibody, V domains shown)
VH: QVQLQESGPRLVKPSETLSLTCTVSGYSISNGYYWGWIRQPPGQGLEWIASVWHSGNTYHNPSLKSRVTILVDTLKNQFSLNLKSVTAADTALYYCARSYTRNDVGAFETWGQGTMVTVSS
VL: SYELTQPPSVSVSPGQTARIACSGDELPKRYAYWYQQKSGQAPVLVMYEDTKRPSGIPERLSGSSSGTVTTLTISGAQVEDEADYYCYSTAPSGNHTFVFGTGTRVTVL
notes: as for B2
B7 was tested, and the binding result [11] was “binds”, the binding result [12] was “binds” and the EC50 [1] was 3.54 nM. The binding result [2] was “no binding”, the binding result [13] was “no binding” and the EC50 [4] was 0.272 nM. It also gave an EC50 [14] of 2.9 nM and an EC50 [15] of 1.33 nM.

B8: NI-206.17A6 (antibody, V domains shown)
VH: QVQLQESGPGLVRSTETLSLTCLVSGDSINSHYWSWLRQSPGRGLEWIGYIYYTGPTNYNPSLKSRVSISLGTSKDQFSLKLSSVTAADTARYYCARNKVFWRGSDFYYYMDVWGKGTTVTVSS
VL: EIVLTQSPGTLSLSLGERATLSCRASQSLANNYLAWYQQKPGQAPRLLMYDASTRATGIPDRFSGSGSGTDFTLTISRLEPEDFAVYYCQQFVTSHHMYIFGQGTKVEIK
notes: Recombinant complete human IgG1 with a kappa light chain
For B8, the EC50 [1] was 10.5 nM, the binding result [2] was “no binding” and the EC50 [4] was 50.2 nM.

Reference: patent publication US20180022822A1 (MABIMMUNE DIAGNOSTICS, published 2018)
